# Experimental data reported in patent US12383631.
# Experiments:
# [1] = molecular target: Composition A (LZM-009 conjugated to IL-18 polypeptide of SEQ ID NO: 30) (human) (UniProt Q14116)
# [2] = molecular target: Composition C (Trastuzumab/Herceptin conjugated to IL-18 polypeptide of SEQ ID NO: 30) (human)
# [3] = molecular target: Composition D (LZM-009 conjugated to IL-18 polypeptide of SEQ ID NO: 31) (human) (UniProt Q14116)
# [4] = molecular target: IL-18 polypeptide of SEQ ID NO: 31 (C38A, C76A, C127A) (human) (UniProt Q14116)
# [5] = molecular target: native IL-18 wild-type (SEQ ID NO: 1) (human) (UniProt Q14116)
# [6] = molecular target: Composition C (Trastuzumab/Herceptin conjugated to IL-18 polypeptide of SEQ ID NO: 30) (human); test: cell-based or functional assay
# [7] = molecular target: IL-18 polypeptide C143 (human) (UniProt Q14116); test: cell-based or functional assay
# [8] = molecular target: IL-18 polypeptide C144 (human) (UniProt Q14116); test: cell-based or functional assay
# [9] = molecular target: IL-18 polypeptide C146 (SEQ ID NO: 68) (human) (UniProt Q14116); test: cell-based or functional assay
# [10] = molecular target: IL-18 polypeptide C147 (human) (UniProt Q14116); test: cell-based or functional assay
# [11] = molecular target: IL-18 polypeptide C150 (human) (UniProt Q14116); test: cell-based or functional assay
# [12] = molecular target: IL-18 polypeptide C151 (human) (UniProt Q14116); test: cell-based or functional assay
# [13] = molecular target: IL-18 polypeptide C152 (human) (UniProt Q14116); test: cell-based or functional assay
# [14] = molecular target: IL-18 polypeptide C153 (human) (UniProt Q14116); test: cell-based or functional assay
# [15] = molecular target: IL-18 polypeptide C154 (human) (UniProt Q14116); test: cell-based or functional assay
# [16] = molecular target: IL-18 polypeptide C155 (human) (UniProt Q14116); test: cell-based or functional assay
# [17] = molecular target: IL-18 polypeptide C157 (human) (UniProt Q14116); test: cell-based or functional assay
# [18] = molecular target: IL-18 polypeptide C158 (human) (UniProt Q14116); test: cell-based or functional assay
# [19] = molecular target: IL-18 polypeptide C160 (human) (UniProt Q14116); test: cell-based or functional assay
# [20] = molecular target: IL-18 polypeptide C161 (human) (UniProt Q14116); test: cell-based or functional assay
# [21] = molecular target: IL-18 polypeptide C163 (human) (UniProt Q14116); test: cell-based or functional assay
# [22] = molecular target: IL-18 polypeptide C164 (human) (UniProt Q14116); test: cell-based or functional assay
# [23] = molecular target: IL-18 polypeptide C165 (human) (UniProt Q14116); test: cell-based or functional assay
# [24] = molecular target: IL-18 polypeptide C167 (human) (UniProt Q14116); test: cell-based or functional assay
# [25] = molecular target: IL-18 polypeptide of SEQ ID NO: 30 (E6K, V11I, C38A, K53A, T63A, C76A, C127A) (human) (UniProt Q14116); test: cell-based or functional assay
# [26] = molecular target: IL-18 polypeptide of SEQ ID NO: 31 (C38A, C76A, C127A) (human) (UniProt Q14116); test: cell-based or functional assay
# [27] = molecular target: IL-18 polypeptide of SEQ ID NO: 34 (E06K, K53A, S55A) (human) (UniProt Q14116); test: cell-based or functional assay
# [28] = molecular target: IL-18 polypeptide of SEQ ID NO: 35 (Y01G, F02A, E06K, M51G, K53A, D54A, S55A, T63A) (human) (UniProt Q14116); test: cell-based or functional assay
# [29] = molecular target: IL-18 polypeptide of SEQ ID NO: 38 (E06K) (human) (UniProt Q14116); test: cell-based or functional assay
# [30] = molecular target: IL-18 polypeptide of SEQ ID NO: 39 (E06K, K53A) (human) (UniProt Q14116); test: cell-based or functional assay
# [31] = molecular target: IL-18 polypeptide of SEQ ID NO: 41 (K53A, S55A) (human) (UniProt Q14116); test: cell-based or functional assay
# [32] = molecular target: IL-18 polypeptide of SEQ ID NO: 42 (E06K, K53A, S55A, T63A) (human) (UniProt Q14116); test: cell-based or functional assay
# [33] = molecular target: IL-18 polypeptide of SEQ ID NO: 47 (C38S, C68S, C76S, C127S) (human) (UniProt Q14116); test: cell-based or functional assay
# [34] = molecular target: IL-18 polypeptide of SEQ ID NO: 48 (C38S, C68S, C76S, C127S, K70C) (human) (UniProt Q14116); test: cell-based or functional assay
# [35] = molecular target: IL-18 polypeptide of SEQ ID NO: 52 (E06K, T63A) (human) (UniProt Q14116); test: cell-based or functional assay
# [36] = molecular target: IL-18 polypeptide of SEQ ID NO: 53 (K53A, T63A) (human) (UniProt Q14116); test: cell-based or functional assay
# [37] = molecular target: IL-18 polypeptide of SEQ ID NO: 6 (E6K, V11I, C38A, K53A, T63A, C68A, C76A, D98C, C127A) (human) (UniProt Q14116); test: cell-based or functional assay
# [38] = molecular target: IL-18 polypeptide of SEQ ID NO: 62 (E6K, C38A, K53A, C127A) (human) (UniProt Q14116); test: cell-based or functional assay
# [39] = molecular target: IL-18 polypeptide of SEQ ID NO: 9 (E6K, C38A, K53A, C68A, D98C) (human) (UniProt Q14116); test: cell-based or functional assay
# [40] = molecular target: native IL-18 wild-type (SEQ ID NO: 1) (human) (UniProt Q14116); test: cell-based or functional assay
substance,measurement,setting,value
"Fc fused human IL-18 binding protein isoform a (IL-18BPa; R&D systems, Cat #119-BP) (from UniProt O95998 31-194) (Fc fusion)","IC50 (read off the curve), IFNg secretion of the stimulated NK92 cells (IFNg AlphaLISA signal)",[1],8 nM
same,"IC50 (read off the curve), IFNg secretion of the stimulated NK92 cells (IFNg AlphaLISA signal)",[2],10 nM
same,"IC50 (read off the curve), IFNg secretion of the stimulated NK92 cells (IFNg AlphaLISA signal)",[3],0.1 nM
same,"IC50 (read off the curve), IFNg secretion of the stimulated NK92 cells (IFNg AlphaLISA signal)",[4],0.3 nM
same,"IC50 (read off the curve), IFNg secretion of the stimulated NK92 cells (IFNg AlphaLISA signal)",[5],1 nM
same,IC50 of IL-18BPa on IFNγ secretion by NK92 cells,[6],21.4 nM
same,"IC50 of IL-18BP on IFNγ secretion, NK92 cells",[7],1.62 nM
same,"IC50 of IL-18BP on IFNγ secretion, NK92 cells",[8],7.52 nM
same,"IC50 of IL-18BP on IFNγ secretion, NK92 cells",[9],733 nM
same,"IC50 of IL-18BP on IFNγ secretion, NK92 cells",[10],47.6 nM
same,"IC50 of IL-18BP on IFNγ secretion, NK92 cells",[11],21.3 nM
same,"IC50 of IL-18BP on IFNγ secretion, NK92 cells",[12],3.62 nM
same,"IC50 of IL-18BP on IFNγ secretion, NK92 cells",[13],7.85 nM
same,"IC50 of IL-18BP on IFNγ secretion, NK92 cells",[14],2.22 nM
same,"IC50 of IL-18BP on IFNγ secretion, NK92 cells",[15],3.71 nM
same,"IC50 of IL-18BP on IFNγ secretion, NK92 cells",[16],3.23 nM
same,"IC50 of IL-18BP on IFNγ secretion, NK92 cells",[17],6.08 nM
same,"IC50 of IL-18BP on IFNγ secretion, NK92 cells",[18],3.98 nM
same,"IC50 of IL-18BP on IFNγ secretion, NK92 cells",[19],3.18 nM
same,"IC50 of IL-18BP on IFNγ secretion, NK92 cells",[20],1.07 nM
same,"IC50 of IL-18BP on IFNγ secretion, NK92 cells",[21],0.823 nM
same,"IC50 of IL-18BP on IFNγ secretion, NK92 cells",[22],0.456 nM
same,"IC50 of IL-18BP on IFNγ secretion, NK92 cells",[23],0.885 nM
same,"IC50 of IL-18BP on IFNγ secretion, NK92 cells",[24],0.809 nM
same,IC50 of IL-18BPa on IFNγ secretion by NK92 cells,[25],488 nM
same,IC50 of IL-18BPa on IFNγ secretion by NK92 cells,[26],0.282 nM
same,"IC50 of IL-18BP on IFNγ secretion, NK92 cells",[27],229 nM
same,"IC50 of IL-18BP on IFNγ secretion, NK92 cells",[28],> 55 nM
same,"IC50 of IL-18BP on IFNγ secretion, NK92 cells",[29],7.79 nM
same,"IC50 of IL-18BP on IFNγ secretion, NK92 cells",[30],> 703 nM
same,"IC50 of IL-18BP on IFNγ secretion, NK92 cells",[31],37.3 nM
same,"IC50 of IL-18BP on IFNγ secretion, NK92 cells",[32],1060 nM
same,"IC50 of IL-18BP on IFNγ secretion, NK92 cells",[33],0.444 nM
same,"IC50 of IL-18BP on IFNγ secretion, NK92 cells",[34],0.114 nM
same,"IC50 of IL-18BP on IFNγ secretion, NK92 cells",[35],47.1 nM
same,"IC50 of IL-18BP on IFNγ secretion, NK92 cells",[36],18.2 nM
same,"IC50 of IL-18BP on IFNγ secretion, NK92 cells",[37],5.85 nM
same,"IC50 of IL-18BP on IFNγ secretion, NK92 cells",[38],284 nM
same,"IC50 of IL-18BP on IFNγ secretion, NK92 cells",[39],961 nM
same,"IC50 of IL-18BP on IFNγ secretion, NK92 cells",[40],1.47 nM
same,IC50 of IL-18BPa on IFNγ secretion by NK92 cells,[40],0.781 nM
